Reference: patent US20250277030A1 (Zymeworks, published 2025)

Experiments:
[1] = target: T1, human sodium-dependent phosphate transporter 2B (NaPi2b) (human, UniProt O95436 1-690); experiment: flow cytometry, TOV-21G cells (endogenous NaPi2b); apparent Kd
T1 construct: UniProt ID is given as 095436 [sic]; also called hNaPi2b; Hu NaPi2b
T1 sequence: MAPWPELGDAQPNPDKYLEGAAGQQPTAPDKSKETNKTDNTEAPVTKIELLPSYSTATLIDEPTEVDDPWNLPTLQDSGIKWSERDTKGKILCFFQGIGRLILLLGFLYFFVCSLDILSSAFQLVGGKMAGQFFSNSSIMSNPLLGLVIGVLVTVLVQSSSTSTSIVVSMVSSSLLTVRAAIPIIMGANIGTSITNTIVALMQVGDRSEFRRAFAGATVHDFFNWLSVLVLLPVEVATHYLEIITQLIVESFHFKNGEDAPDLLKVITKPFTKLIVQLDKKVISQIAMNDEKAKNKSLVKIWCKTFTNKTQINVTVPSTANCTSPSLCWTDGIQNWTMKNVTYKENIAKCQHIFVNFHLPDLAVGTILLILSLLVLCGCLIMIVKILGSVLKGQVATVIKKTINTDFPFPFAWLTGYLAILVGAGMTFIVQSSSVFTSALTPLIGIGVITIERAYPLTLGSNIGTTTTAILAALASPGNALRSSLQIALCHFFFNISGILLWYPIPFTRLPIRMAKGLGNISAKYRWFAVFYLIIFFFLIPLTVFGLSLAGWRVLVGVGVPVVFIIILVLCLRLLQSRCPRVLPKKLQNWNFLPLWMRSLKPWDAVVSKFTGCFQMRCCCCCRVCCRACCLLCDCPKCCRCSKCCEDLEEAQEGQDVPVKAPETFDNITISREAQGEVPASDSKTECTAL
Description: (§1) Briefly, cells were seeded at 50,000 cells/well in conical-bottom 96-well plates and treated with test antibody for 24 hours at 4° C. to prevent internalization. […] Following incubation, cells were washed and stained with anti-Human IgG Fc AF647 conjugate (Jackson Immuno Research Labs, West Grove, PA; Cat. No. 109-605-098) at 4° C. for 30 min. Following incubation and washing, fluorescence was detected by flow cytometry on a BD LSRFortessa™ Cell Analyzer (BD Biosciences, Franklin Lake, NJ) with 1,000 minimum events collected per well. The AF647/APC-A GeoMean (fluorescence signal geometric mean, proportional to anti-Human AF647 binding) was calculated for the live cell population using FlowJo™ Version 10.8.1 (BD Biosciences, Franklin Lake, NJ) and plotted for each test antibody using GraphPad Prism Version 9 (GraphPad Software, San Diego, CA).
(§2) The ability of the humanized antibody variants v38591 and v29456 to bind to NaPi2b expressed on cells was assessed on endogenous NaPi2b-expressing tumor cell lines IGROV-1 (ovarian adenocarcinoma) and TOV-21G (ovarian carcinoma) by flow cytometry.
(§3) Cellular binding was performed according to methods described in Example 13.

cynomolgus monkey NaPi2b = target: T2, cynomolgus monkey NaPi2b (cynomolgus monkey, UniProt O95436 1-690 (human entry)); experiment: flow cytometry, HEK293-6e cells transfected with cynomolgus NaPi2b
T2 construct: Transiently expressed on HEK293-6e cells; also called Cyno NaPi2b
T2 chain: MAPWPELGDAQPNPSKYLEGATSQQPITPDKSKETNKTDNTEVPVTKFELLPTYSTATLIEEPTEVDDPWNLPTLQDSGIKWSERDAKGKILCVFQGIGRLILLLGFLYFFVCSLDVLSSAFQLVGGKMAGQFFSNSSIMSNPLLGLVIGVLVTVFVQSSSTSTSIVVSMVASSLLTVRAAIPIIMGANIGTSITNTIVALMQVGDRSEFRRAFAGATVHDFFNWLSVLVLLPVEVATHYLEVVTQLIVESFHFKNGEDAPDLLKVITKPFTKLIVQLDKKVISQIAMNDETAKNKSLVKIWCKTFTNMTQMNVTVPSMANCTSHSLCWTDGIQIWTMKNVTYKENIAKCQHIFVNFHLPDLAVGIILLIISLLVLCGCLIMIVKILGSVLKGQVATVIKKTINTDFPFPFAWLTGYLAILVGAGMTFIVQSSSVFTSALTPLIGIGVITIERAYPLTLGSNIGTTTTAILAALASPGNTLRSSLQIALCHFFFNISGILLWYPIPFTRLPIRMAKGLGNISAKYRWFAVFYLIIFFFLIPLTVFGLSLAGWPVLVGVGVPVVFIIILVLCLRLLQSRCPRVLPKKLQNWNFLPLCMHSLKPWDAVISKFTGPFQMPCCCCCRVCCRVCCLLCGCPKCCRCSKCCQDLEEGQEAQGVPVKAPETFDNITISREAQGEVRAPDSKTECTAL
Description: The binding cross-reactivity of humanized antibody variant v29456 to human, cynomolgus and mouse NaPi2b was assessed by flow cytometry using HEK293-6e transfected cells.
(§4) Briefly, HEK293-6e cells were transfected for ˜24 hours to transiently express human NaPi2b, cynomolgus or mouse NaPi2b, at 1 μg of DNA per 1 million cells. Following transfection, 50,000 cells per well were seeded in V-bottom 96-well plates and incubated with 200 nM of primary antibody for 18-24 hours at 4° C. to prevent internalization. Post-incubation, cells were washed and stained with anti-Human IgG Fc AF647 conjugate (Jackson Immuno Research Labs, West Grove, PA, Cat. No. 109-605-098, Lot. No. 124868) at 4° C. for 1 hour. Following staining and washing, fluorescence was detected by flow cytometry on BD LSRFortessa™ Cell Analyzer (BD Biosciences, Franklin Lake, NJ) with 10,000 minimum events collected per well. The AF647/APC-A GeoMean (fluorescence signal geometric mean, proportional to anti-Human AF647 binding) was calculated for the live singlet cell population for each primary antibody using FlowJo™ v8 software (BD Biosciences, Franklin Lake, NJ). The Bmax and Kd of each primary antibody were calculated using GraphPad Prism Version 9 (GraphPad Software, San Diego, CA)

[2] = target: T1, human sodium-dependent phosphate …; experiment: flow cytometry on IGROV-1 cells (endogenous NaPi2b), 24 h at 4 C, anti-human IgG Fc AF647 detection
Description: as §1, §2, §3

[3] = target: T1, human sodium-dependent phosphate …; experiment: flow cytometry, IGROV-1 cells (endogenous NaPi2b); apparent Kd
Description: as §1, §2, §3

[4] = target: T1, human sodium-dependent phosphate …; experiment: flow cytometry, HCC-78 cells (endogenous NaPi2b)
Description: as §4
The ability of ADCs to bind to cells expressing NaPi2b was assessed. […] Binding to endogenous high NaPi2b-expressing cell lines IGROV-1 and HCC-78 was assessed by flow cytometry according to methods described in Example 5.

Kd [1]: 0.6 nM | Bmax (APC-A GeoMean) (cynomolgus monkey NaPi2b): 2010 APC-A GeoMean | fold lower apparent Kd than v18992 (MX35) (cynomolgus monkey NaPi2b): 10 fold | fold lower apparent Kd than v18993 (lifastuzumab) (cynomolgus monkey NaPi2b): 2 fold | EC50 (read off the curve) [2]: ~1 nM | Kd [3]: 1.28 nM | Bmax [4]: 21800
B1: v29456 humanized anti-NaPi2b antibody (H1L2) (antibody, human IgG1, kappa)
heavy: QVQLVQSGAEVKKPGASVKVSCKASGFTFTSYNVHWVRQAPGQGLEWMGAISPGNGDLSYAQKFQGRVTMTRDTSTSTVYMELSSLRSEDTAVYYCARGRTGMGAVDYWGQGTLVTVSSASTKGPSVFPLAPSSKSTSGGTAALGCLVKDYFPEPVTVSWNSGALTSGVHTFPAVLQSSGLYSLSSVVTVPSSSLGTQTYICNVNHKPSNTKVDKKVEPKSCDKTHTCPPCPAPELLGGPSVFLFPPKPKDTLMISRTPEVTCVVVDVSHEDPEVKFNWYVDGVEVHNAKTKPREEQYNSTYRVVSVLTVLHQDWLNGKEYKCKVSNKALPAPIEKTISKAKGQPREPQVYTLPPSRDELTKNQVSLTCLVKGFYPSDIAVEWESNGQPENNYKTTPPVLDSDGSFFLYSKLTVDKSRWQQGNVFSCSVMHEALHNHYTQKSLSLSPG
light: DVQMTQSPSSLSASVGDRVTITCRASQDVYSYLNWYQQKPGKAVKLLIYYTSRLQSGVPSRFSGSGSGTDYTLTISSLQPEDFATYYCQQYNIFPWTFGQGTKLEIKRTVAAPSVFIFPPSDEQLKSGTASVVCLLNNFYPREAKVQWKVDNALQSGNSQESVTEQDSKDSTYSLSSTLTLSKADYEKHKVYACEVTHQGLSSPVTKSFNRGEC
